Test results published in article PMC11019291.

Target: SARS-CoV-2 nucleocapsid protein (N protein) (SARS-CoV-2, UniProt P0DTC9)
Assay: SERS (surface-immobilized aptamer)
Details: protein: recombinant; tags: C-terminal His6 (pET26); N-terminal PelB signal and vector residues

AAAAACGCGCGTATTCCTTAGGGGCACCGCTACACGCGCG (ssDNA, 5'-thiol) [anti-N DNA aptamer]: binds.
